Assay results published in patent US20050277588A1 (AFFYMAX, published 2005).
Where no end group is shown, it is not given here. The star is where a group is joined. Biotin = O=C1N[C@H]2[C@H](CS[C@H]2CCCCC(=O)*)N1

T1: granulocyte-colony stimulating factor receptor (G-CSFR), purified / soluble receptor used in the binding … (UniProt Q99062 25-627, limits assumed)
T1 construct: also called G-CSF receptor; soluble G-CSFR harvest
T1 sequence (looked up): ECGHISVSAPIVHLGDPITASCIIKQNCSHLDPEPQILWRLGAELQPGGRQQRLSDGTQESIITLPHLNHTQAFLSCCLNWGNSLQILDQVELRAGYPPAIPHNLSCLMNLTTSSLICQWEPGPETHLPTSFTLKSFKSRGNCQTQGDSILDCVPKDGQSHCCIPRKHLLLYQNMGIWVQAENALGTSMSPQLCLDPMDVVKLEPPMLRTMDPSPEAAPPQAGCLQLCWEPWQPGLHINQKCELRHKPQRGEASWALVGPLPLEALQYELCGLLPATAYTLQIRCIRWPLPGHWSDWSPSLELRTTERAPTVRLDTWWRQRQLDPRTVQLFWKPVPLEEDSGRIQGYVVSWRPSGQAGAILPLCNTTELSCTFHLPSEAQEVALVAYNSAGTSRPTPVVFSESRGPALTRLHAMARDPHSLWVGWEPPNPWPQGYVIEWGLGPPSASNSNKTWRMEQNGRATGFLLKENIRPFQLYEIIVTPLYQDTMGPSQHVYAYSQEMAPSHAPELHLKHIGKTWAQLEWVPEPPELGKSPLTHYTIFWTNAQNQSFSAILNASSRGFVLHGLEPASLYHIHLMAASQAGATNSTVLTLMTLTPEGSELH


Assays:
[1] = biological target: T1, granulocyte-colony stimulating factor …; assay: SPA competition with 125I-G-CSF on G-CSFR-coated beads; grade defined in paragraph 137
Procedure: (§1) Streptavidin-coated scintillation proximity assay (SPA) beads (Amersham) were mixed with biotinylated anti-receptor immobilizing antibody (Ab179) followed by incubation with soluble G-CSFR harvest. Receptor-coated SPA beads were washed twice in PBS/0.1% BSA and distributed to wells of a white polystyrene 96-well microtiter plate (Packard). Serial dilutions of peptide or peptide mimetic were mixed with a constant amount of ¹²⁵I labeled G-CSF (10⁵ cpm; 1290 Ci/mmol) in PBS/0.1% BSA, added to wells containing receptor-coated SPA beads, and incubated overnight at 4° C. The binding of radiolabeled G-CSF to the receptor-coated SPA bead brings the isotope in close proximity to the scintillant, which allows the emitted radiation to stimulate the scintillant to emit light. […] The amount of ¹²⁵I labeled G-CSF that was bound at equilibrium was measured by counting the plate in a TopCount (Wallac) microtiter plate luminometer. The assay is conducted over a range of peptide concentrations and the results are graphed such that the y-axis represents the amount of bound ¹²⁵I labeled G-CSF and the x-axis represents the concentration of peptide or peptide mimetic. One can determine the concentration at which the peptide or peptide mimetic will reduce by 50% (IC₅₀) the amount of ¹²⁵I labeled G-CSF bound to immobilized G-CSFR. The dissociation constant (Kd) for the peptide should be similar to the measured IC₅₀ using the assay conditions described above.

[2] = biological target: T1, granulocyte-colony stimulating factor …; assay: SPA competition with 125I-G-CSF on G-CSFR-coated beads; hybrid grade, at or near the cutoff
Procedure: as §1

[3] = biological target: T1, granulocyte-colony stimulating factor …; assay: specific binding to G-CSFR (total minus non-specific binding with excess unlabeled ligand)

Binder	IC50 [1] [µM]	also measured
H-EQSNSGWVWV-NH2 (also called Ex. No. 35; Ex. 74) [Example 35 peptide NH2-EQSNSGWVWV-CONH2]	≤ 200	–
H-STAERLWFCG-NH2 (also: homodimer via interchain disulfide between the Cys residues, also called Ex. No. 37; Ex. 76) [Example 37 dimer of NH2-STAERLWFCG-CONH2]	≤ 200	–
H-EQSNSGWVWVGGGGC-NH2 (also called Ex. No. 45) [Example 45 peptide NH2-EQSNSGWVWVGGGGC-CONH2 (monomer)]	≤ 200	–
H-EQSNSGWVWVGGGGC-NH2 (also: homodimer linked through the C-terminal Cys residues, also called Ex. No. 46) [Example 46 dimer of NH2-EQSNSGWVWVGGGGC-CONH2]	≤ 200	–
CESRLVECSRM (also called Ex. No. 47) [Example 47 peptide CESRLVECSRM]	–	IC50 [2]: ~200 µM
LAHCLLRLEECAAG (also called Ex. No. 48) [Example 48 peptide LAHCLLRLEECAAG]	–	IC50 [2]: ~200 µM
ALLMCESKLAECARAR (also called Ex. No. 49) [Example 49 peptide ALLMCESKLAECARAR]	–	IC50 [2]: ~200 µM
H-DLWYLESKLEECARRCNG-NH2 (not fully specified (bridges); cysteine pairing not given here, also called Ex. No. 51) [Example 51 peptide DLWYLESKLEECARRCNG]	≤ 200	–
H-DLWYLESKLEECARRANG-NH2 (also: disulfide at 12, other end not in the chain, T0034 draws this dimer as [H]-...-[NH2]; also called Ex. No. 50) [Example 50 dimer of DLWYLESKLEECARRANG]	≤ 200	–
H-DLWYLESKLEEAARRCNG-NH2 (also: homodimer via interchain disulfide between the Cys residues, also called Ex. No. 52) [Example 52 dimer of DLWYLESKLEEAARRCNG]	≤ 200	–
H-LLDICELKLQECARRCN-OH (also: oxidation state as tested not given here, active only after oxidation, as a dimer, also called Ex. No. 53; Ex. 78 peptide) [Example 53 peptide LLDICELKLQECARRCN (AF15846), oxidation state as tested not stated]	≤ 0.5	–
LLDICELKLQECARRAN (not fully specified (bridges); cysteine pairing not given here, also called Ex. No. 57) [Example 57 peptide LLDICELKLQECARRAN]	≤ 200	–
H-LLDICELKLQEAARRCN-OH (not fully specified (bridges); cysteine pairing not given here, also called Ex. No. 58) [Example 58 peptide LLDICELKLQEAARRCN]	≤ 200	–
Biotin-LLDICELKLQECARRAN (cysteine pairing not given here, also called Ex. No. 59) [Example 59 peptide Biotin-LLDICELKLQECARRAN]	≤ 200	–
H-LLDIAELKLQECARRCN-OH (not fully specified (bridges); cysteine pairing not given here, also called Ex. No. 61) [Example 61 peptide LLDIAELKLQECARRCN]	≤ 200	–
GGGLLDICELKLQECARRCN (also called Ex. No. 54) [Example 54 peptide GGGLLDICELKLQECARRCN]	≤ 0.5	–
GRTGGGLLDICELKLQECARRCN (also called Ex. No. 55) [Example 55 peptide GRTGGGLLDICELKLQECARRCN]	≤ 0.5	–
LGIEGRTGGGLLDICELKLQECARRCN (also called Ex. No. 56) [Example 56 peptide LGIEGRTGGGLLDICELKLQECARRCN]	≤ 0.5	–
Biotin-KLLDICELKLQEAARRCN (cysteine pairing not given here, also called Ex. No. 60) [Example 60 peptide Biotin-KLLDICELKLQEAARRCN]	≤ 200	–
Biotin-KLLDIAELKLQECARRCN (cysteine pairing not given here, also called Ex. No. 62) [Example 62 peptide Biotin-KLLDIAELKLQECARRCN]	≤ 200	–
Biotin-KGGGMLAERKAEERRWFNTHGRE (also called Ex. No. 63) [Example 63 peptide Biotin-KGGGMLAERKAEERRWFNTHGRE]	≤ 200	–
Example 64 lysine-linked dimer MLAERKAEERRWFNTHGRE / MLAERKAEERRWFNTHGREK (also: chain 1 C-terminus joined to the C-terminal Lys of chain 2 (branch link drawn), also called Ex. No. 64) peptide 1: MLAERKAEERRWFNTHGRE peptide 2: MLAERKAEERRWFNTHGREK-NH2	–	IC50 [2]: ~200 µM
CSTGGGLTAERDAEKRRWLLTHGGE (also: homodimer linked through the N-terminal Cys residues, also called Ex. No. 67) [Example 67 dimer of CSTGGGLTAERDAEKRRWLLTHGGE]	≤ 200	–
YLELCQLRLEECARQFN (also called Ex. No. 70) [Example 70 peptide YLELCQLRLEECARQFN]	≤ 200	–
CGCHVSPVQIKALC (also called Ex. No. 71) [Example 71 peptide CGCHVSPVQIKALC]	≤ 200	–
CQRAGYMLAC (also called Ex. No. 8) [Example 8 peptide CQRAGYMLAC]	–	binding result [3]: no binding
CHANPVWGEC (also called Ex. No. 9) [Example 9 peptide CHANPVWGEC]	–	binding result [3]: no binding
CTWTDLESVY (also called Ex. No. 10) [Example 10 peptide CTWTDLESVY]	–	binding result [3]: no binding
CFWSDWGQTC (also called Ex. No. 11) [Example 11 peptide CFWSDWGQTC]	–	binding result [3]: no binding
CETLCGACFC (also called Ex. No. 15) [Example 15 peptide CETLCGACFC]	–	binding result [3]: no binding
